Patent US20120294797A1 (ALDERBIO, published 2012)
Numbering of substitutions follows the chain as printed.

T1: Homo sapiens CGRP-alpha (Calcitonin Gene Related Peptide alpha) (Homo sapiens, C-terminal -NH2 as printed in the sequence (the text says "the N-terminal phenylalanine is amidated"))
T1 construct: Synthetic 37-residue peptide from American Peptides / Bachem; Coated directly on the plate in the recombinant-antibody ELISA; also called human CGRPα; CGRPα
T1 peptide: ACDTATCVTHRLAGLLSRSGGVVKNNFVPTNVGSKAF

B1: Antibody Ab1 (antibody, human IgG1, kappa, N297A, V domains shown)
VH: QSLEESGGRLVTPGTPLTLTCTVSGLDLSSYYMQWVRQAPGKGLEWIGVIGINDNTYYASWAKGRFTISRASSTTVDLKMTSLTTEDTATYFCARGDIWGPGTLVTVSS
VL: QVLTQTASPVSAAVGSTVTINCQASQSVYDNNYLAWYQQKPGQPPKQLIYSTSTLASGVSSRFKGSGSGTQFTLTISDLECADAATYYCLGSYDCSSGDCFVFGGGTEVVVKR
notes: Chimeric (rabbit variable regions, human gamma-1 and kappa constant regions), full length
B2: Antibody Ab7 (antibody, human IgG1, kappa, N297A, V domains shown)
VH: QEQLKESGGRLVTPGTSLTLTCTVSGIDLSNHYMQWVRQAPGKGLEWIGVVGINGRTYYASWAKGRFTISRTSSTTVDLKMTRLTTEDTATYFCARGDIWGPGTLVTVSS
VL: B1 VL with D30N, N31Y, L79V, E80Q, A82D, S97T
notes: as for B1
B3: Antibody Ab11 (antibody, human IgG1, kappa, N297A, V domains shown)
VH: QSLEESGGRLVTPGGSLTLTCTVSGIDVTNYYMQWVRQAPGKGLEWIGVIGVNGKRYYASWAKGRFTISKTSSTTVDLKMTSLTTEDTATYFCARGDIWGPGTLVTVSS
VL: B1 VL with A12P, Q23R, D30Y, L79V, E80Q, A82D, S97N
notes: as for B1
B4: Antibody Ab4 (antibody, human IgG1, kappa, N297A, V domains shown)
VH: B1 VH with T22S, L26I, S30G, Q34N, D54G, N55A, R70K, A71T
VL: QVLTQTPSPVSAAVGSTVTINCQASQSVYHNTYLAWYQQKPGQPPKQLIYDASTLASGVPSRFSGSGSGTQFTLTISGVQCNDAAAYYCLGSYDCTNGDCFVFGGGTEVVVKR
notes: as for B1
B5: Antibody Ab9 (antibody, human IgG1, kappa, N297A, V domains shown)
VH: QSLEESGGRLVTPGTPLTLTCTVSGIGLSSYYMQWVRQSPGRGLEWIGVIGSDGKTYYATWAKGRFTISKTSSTTVDLRMASLTTEDTATYFCTRGDIWGPGTLVTVSS
VL: B1 VL with A7P, S27N, D30N, K64R, L79V, E80Q, A82D, S97R
notes: as for B1
B6: Antibody Ab2 (antibody, human IgG1, kappa, N297A)
heavy: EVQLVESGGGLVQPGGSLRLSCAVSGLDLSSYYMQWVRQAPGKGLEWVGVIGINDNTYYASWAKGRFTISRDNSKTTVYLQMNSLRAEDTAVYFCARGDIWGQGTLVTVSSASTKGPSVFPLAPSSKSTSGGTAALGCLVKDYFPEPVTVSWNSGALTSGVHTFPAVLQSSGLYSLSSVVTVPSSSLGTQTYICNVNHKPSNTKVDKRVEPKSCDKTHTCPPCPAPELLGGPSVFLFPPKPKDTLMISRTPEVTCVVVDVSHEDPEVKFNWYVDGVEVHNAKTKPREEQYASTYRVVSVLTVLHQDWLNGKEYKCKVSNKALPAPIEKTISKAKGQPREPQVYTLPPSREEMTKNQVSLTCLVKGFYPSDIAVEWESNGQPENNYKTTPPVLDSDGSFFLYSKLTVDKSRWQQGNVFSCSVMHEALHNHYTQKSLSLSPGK
light: QVLTQSPSSLSASVGDRVTINCQASQSVYDNNYLAWYQQKPGKVPKQLIYSTSTLASGVPSRFSGSGSGTDFTLTISSLQPEDVATYYCLGSYDCSSGDCFVFGGGTKVEIKRTVAAPSVFIFPPSDEQLKSGTASVVCLLNNFYPREAKVQWKVDNALQSGNSQESVTEQDSKDSTYSLSSTLTLSKADYEKHKVYACEVTHQGLSSPVTKSFNRGEC
notes: Humanized, full length, human gamma-1 and kappa constant regions
B7: Antibody Ab14 (antibody, human IgG1, kappa, N297A)
heavy: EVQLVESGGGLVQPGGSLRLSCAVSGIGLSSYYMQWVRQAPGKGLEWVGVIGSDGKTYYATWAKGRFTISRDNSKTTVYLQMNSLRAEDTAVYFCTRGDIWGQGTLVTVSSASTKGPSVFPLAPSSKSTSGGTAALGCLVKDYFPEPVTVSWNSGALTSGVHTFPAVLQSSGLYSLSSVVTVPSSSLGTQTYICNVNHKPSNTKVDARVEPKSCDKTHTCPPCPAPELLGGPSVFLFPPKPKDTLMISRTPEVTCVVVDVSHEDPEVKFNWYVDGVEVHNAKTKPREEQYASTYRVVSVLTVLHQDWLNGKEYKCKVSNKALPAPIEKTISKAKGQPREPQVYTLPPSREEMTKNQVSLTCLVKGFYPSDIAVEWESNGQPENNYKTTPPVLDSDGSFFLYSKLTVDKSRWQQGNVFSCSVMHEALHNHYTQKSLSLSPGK
light: B6 light with S27N, D30N, S97R
notes: Humanized, full length; same variable regions as Ab10, heavy constant region differs (KVDARV instead of KVDKRV)
B8: Antibody Ab10 (antibody, human IgG1, kappa, N297A)
heavy: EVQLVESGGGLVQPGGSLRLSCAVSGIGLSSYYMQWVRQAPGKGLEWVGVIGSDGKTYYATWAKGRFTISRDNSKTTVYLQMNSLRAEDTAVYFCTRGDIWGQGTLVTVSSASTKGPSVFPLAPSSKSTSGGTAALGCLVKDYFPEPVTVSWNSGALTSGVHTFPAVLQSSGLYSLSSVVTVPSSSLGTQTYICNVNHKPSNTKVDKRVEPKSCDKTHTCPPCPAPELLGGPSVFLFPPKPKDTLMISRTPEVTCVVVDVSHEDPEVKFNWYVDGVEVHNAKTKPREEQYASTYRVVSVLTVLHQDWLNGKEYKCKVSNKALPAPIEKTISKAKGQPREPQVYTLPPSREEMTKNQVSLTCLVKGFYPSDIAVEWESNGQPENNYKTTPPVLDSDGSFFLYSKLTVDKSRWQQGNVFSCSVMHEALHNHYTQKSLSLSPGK
light: B6 light with S27N, D30N, S97R
notes: as for B6
B9: Antibody Ab3 (antibody, human IgG1, kappa, N297A)
heavy: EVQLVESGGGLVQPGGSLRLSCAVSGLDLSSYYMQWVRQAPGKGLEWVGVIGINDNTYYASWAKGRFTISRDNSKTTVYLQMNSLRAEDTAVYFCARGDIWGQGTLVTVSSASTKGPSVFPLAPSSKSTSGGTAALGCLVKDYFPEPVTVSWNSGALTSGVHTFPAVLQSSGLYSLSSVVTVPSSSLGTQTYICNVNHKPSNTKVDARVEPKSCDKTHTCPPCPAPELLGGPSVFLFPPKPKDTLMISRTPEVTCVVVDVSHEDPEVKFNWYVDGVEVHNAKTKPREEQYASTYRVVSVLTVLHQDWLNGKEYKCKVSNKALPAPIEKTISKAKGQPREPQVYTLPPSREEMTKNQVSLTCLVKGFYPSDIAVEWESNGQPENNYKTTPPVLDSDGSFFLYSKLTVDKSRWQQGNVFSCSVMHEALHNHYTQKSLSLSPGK
light: B6 light
notes: Humanized, full length; same variable regions as Ab2, heavy constant region differs (KVDARV instead of KVDKRV)
B10: Antibody Ab6 (antibody, human IgG1, kappa, N297A)
heavy: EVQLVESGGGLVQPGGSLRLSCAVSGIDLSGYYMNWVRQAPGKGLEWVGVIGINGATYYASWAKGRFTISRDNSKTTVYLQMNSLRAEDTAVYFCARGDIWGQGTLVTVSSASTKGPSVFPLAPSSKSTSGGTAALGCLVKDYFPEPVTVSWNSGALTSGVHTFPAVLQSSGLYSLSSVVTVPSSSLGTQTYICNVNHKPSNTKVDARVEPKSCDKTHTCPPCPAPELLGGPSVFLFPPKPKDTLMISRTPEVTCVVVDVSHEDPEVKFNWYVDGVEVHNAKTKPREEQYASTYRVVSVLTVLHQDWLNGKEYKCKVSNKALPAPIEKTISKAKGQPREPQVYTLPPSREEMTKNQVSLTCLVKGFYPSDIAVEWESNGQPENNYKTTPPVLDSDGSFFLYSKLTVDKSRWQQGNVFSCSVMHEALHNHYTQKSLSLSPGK
light: B6 light with D30H, N32T, S51D, T52A, S96T, S97N
notes: Humanized, full length; same variable regions as Ab5, heavy constant region differs (KVDARV instead of KVDKRV)
B11: Antibody Ab8 (antibody, human IgG1, kappa, N297A, V domains shown)
VH: EVQLVESGGGLVQPGGSLRLSCAVSGIDLSNHYMQWVRQAPGKGLEWVGVVGINGRTYYASWAKGRFTISRDNSKTTVYLQMNSLRAEDTAVYFCARGDIWGQGTLVTVSS
VL: QVLTQSPSSLSASVGDRVTINCQASQSVYNYNYLAWYQQKPGKVPKQLIYSTSTLASGVPSRFSGSGSGTDFTLTISSLQPEDVATYYCLGSYDCSTGDCFVFGGGTKVEIKR
notes: as for B6
B12: Antibody Ab5 (antibody, human IgG1, kappa, N297A)
heavy: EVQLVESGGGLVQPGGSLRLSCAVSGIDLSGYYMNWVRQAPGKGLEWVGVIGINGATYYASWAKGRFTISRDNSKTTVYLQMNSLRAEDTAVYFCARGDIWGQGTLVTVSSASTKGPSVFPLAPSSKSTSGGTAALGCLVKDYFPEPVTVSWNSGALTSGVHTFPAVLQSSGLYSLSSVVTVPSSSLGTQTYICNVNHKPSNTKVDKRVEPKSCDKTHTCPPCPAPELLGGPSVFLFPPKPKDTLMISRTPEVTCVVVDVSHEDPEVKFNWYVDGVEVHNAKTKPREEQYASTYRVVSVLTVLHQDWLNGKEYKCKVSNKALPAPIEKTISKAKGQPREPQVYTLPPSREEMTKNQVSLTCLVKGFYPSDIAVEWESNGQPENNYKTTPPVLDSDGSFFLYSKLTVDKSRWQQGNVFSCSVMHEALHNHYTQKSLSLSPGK
light: B6 light with D30H, N32T, S51D, T52A, S96T, S97N
notes: as for B6
B13: Antibody Ab12 (antibody, human IgG1, kappa, N297A, V domains shown)
VH: B11 VH with L29V, S30T, H32Y, V51I, I53V, R56K, T57R
VL: B11 VL with Q23R, N30Y, Y31N, T97N
notes: as for B6

Molecular target: T1, Homo sapiens CGRP-alpha (Calcitonin …)
Test: ELISA: CGRPα coated on plate, antibody dilution series, anti-human IgG Fc-peroxidase detection
Protocol: To characterize recombinant expressed antibodies for their ability to bind to human-CGRPα, antibody-containing solutions were tested by ELISA. All incubations were done at room temperature. Briefly, Immulon IV plagtes (Thermo Scientific) were coated with a CGRPα containing solution ([…] in PBS) for 2 hours. CGRPα-coated plates were then washed three times in wash buffer (PBS, 0.05% Tween-20). The plates were then blocked using a blocking solution (PBS, 0.5% fish skin gelatin, 0.05% Tween-20) for approximately one hour. The blocking solution was then removed and the plates were then incubated with a dilution series of the antibody being tested for approximately one hour. At the end of this incubation, the plate was washed three times with wash buffer and further incubated with a secondary antibody containing solution (Peroxidase conjugated affinipure F(ab′)2 fragment goat anti-human IgG, Fc fragment specific (Jackson Immunoresearch) for approximately 45 minutes and washed three times. At that point a substrate solution (TMB peroxidase substrate, BioFx) and incubated for 3 to 5 minutes in the dark. The reaction was stopped by addition of a HCl containing solution (0.5M) and the plate was read at 450 nm in a plate-reader.

Binding result, binds:
B1
B2
B3
B4
B5
B6
B7
B8
B9
B10
B11
B12
B13
